Four molecules from patent US20170158755A1 (PROTHENA BIOSCIENCES, published 2017) can be followed below.

Experiment [1] has as its target T1, human LAMA4 G domain (LG1-5) displayed on 293 cells (human, UniProt Q16363 830-1821).
T1 construct: the vector's tags and membrane anchor are not written here; also called LAMA4-displaying human 293 cells; full length
T1 sequence: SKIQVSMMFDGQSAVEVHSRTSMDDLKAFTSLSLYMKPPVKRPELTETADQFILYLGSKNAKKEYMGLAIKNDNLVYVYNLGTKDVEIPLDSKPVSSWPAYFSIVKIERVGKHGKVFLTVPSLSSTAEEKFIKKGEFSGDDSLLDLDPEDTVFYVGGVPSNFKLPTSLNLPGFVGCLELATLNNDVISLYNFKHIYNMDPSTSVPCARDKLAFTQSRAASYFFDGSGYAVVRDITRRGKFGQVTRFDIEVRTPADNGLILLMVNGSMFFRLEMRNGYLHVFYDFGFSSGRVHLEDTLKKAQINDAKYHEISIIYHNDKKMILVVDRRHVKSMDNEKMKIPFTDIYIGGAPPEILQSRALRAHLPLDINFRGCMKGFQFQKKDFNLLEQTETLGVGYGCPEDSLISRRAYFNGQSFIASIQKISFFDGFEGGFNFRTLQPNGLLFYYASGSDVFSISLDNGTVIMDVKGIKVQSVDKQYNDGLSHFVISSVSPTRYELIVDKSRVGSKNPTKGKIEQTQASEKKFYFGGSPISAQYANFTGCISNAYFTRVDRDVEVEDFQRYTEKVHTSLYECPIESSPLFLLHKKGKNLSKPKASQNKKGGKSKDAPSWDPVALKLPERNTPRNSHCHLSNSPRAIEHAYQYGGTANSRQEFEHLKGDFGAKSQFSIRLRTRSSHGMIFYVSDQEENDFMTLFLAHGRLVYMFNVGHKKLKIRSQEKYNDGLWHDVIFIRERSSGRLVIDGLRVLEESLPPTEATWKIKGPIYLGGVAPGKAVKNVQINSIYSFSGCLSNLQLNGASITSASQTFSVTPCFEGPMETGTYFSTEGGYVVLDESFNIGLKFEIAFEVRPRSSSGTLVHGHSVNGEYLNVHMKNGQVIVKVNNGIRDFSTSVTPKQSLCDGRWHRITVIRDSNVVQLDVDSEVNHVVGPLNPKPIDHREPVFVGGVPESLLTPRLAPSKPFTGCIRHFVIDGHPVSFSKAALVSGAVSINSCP
In words: flow cytometry on 293 cells displaying LAMA4 G-domain variants, anti-human-650 secondary antibody; MFI. On the procedure:
(§1) The 19C12 variants chimeric 19C12, H1+chiL, and H2+chiL, and buffer alone were tested for their ability to block the binding of LAMA4 to its ligand MCAM (as shown in FIG. 11) and to bind LAMA4-displaying cells (full length, LG1-3, LG4-5, or untransfected control) (as shown in FIG. 12). […] To test LAMA4 binding capacity, serially diluted antibodies were pre-incubated with LAMA4-displaying human 293 cells, followed by anti-human-650 secondary antibody incubation. Fluorescent signal was assessed via flow cytometric analyses and plotted as mean fluorescence intensity (MFI).

In experiment [2] the target is T2, human LAMA4 LG1-3 modules displayed on 293 cells (human, UniProt Q16363 830-1430).
T2 construct: pDisplay construct on 293 cells; vector tags and anchor not written here
T2 sequence: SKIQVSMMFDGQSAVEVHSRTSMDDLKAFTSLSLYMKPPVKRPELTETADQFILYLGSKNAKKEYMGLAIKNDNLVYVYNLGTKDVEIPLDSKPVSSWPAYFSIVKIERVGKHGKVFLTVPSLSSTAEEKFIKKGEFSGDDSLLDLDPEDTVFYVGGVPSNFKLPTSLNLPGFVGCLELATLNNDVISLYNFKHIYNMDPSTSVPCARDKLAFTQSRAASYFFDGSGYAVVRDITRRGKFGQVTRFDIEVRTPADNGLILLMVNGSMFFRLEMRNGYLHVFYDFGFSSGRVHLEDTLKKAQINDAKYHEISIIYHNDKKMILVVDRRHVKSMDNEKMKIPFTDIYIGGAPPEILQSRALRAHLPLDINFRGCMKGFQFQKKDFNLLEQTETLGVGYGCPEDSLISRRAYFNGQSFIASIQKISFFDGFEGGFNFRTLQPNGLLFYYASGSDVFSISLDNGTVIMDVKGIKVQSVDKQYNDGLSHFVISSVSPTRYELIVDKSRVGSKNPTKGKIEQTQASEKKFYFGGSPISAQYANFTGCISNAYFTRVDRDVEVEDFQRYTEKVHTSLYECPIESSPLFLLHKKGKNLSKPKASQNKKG
Described as above. The procedure: as §1

Experiment [3] has as its target T3, human LAMA4 LG4-5 modules displayed on 293 cells (human, UniProt Q16363 1453-1821).
T3 construct: pDisplay construct on 293 cells; vector tags and anchor not written here
T3 sequence: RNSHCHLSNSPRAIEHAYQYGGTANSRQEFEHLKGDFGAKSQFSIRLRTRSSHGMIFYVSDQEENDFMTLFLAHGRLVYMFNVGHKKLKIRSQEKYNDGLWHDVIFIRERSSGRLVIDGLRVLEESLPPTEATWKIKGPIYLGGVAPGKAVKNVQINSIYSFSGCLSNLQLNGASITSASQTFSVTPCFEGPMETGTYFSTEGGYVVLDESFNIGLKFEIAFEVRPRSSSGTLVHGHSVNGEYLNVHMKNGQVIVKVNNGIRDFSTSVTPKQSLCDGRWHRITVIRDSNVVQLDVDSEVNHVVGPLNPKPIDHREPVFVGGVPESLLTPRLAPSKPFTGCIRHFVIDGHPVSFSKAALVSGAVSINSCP
Described as above. On the procedure: as §1

Experiment [4] addresses T4, recombinant laminin 411 (human, UniProt P07942 22-1786; P11047 34-1609, limits assumed).
T4 construct: also called LAMA4 in complex with its gamma1 and beta1 chains
Kind of experiment: flow cytometric blocking assay; antibody pre-incubated with 650-labeled laminin 411; blocked partner: human MCAM on CHO cells; MFI. On the procedure: as §1
Following two washes with FACS buffer (1% FBS in PBS), cells were resuspended with 650-conjugated anti-pan-laminin antibody (1:1000; Novus Biologicals) and incubated for 20 min at 4° C., and washed again. Cells were analyzed for pan-laminin reactivity by flow cytometry using standard procedures.
(In general: In flow cytometry, cells or beads pass a laser one at a time.)

Experiment [5] has as its target T1, human LAMA4 G domain (LG1-5) displayed …. In words: flow cytometry on LAMA4-displaying 293 cells, anti-human-650 secondary antibody; MFI (binding experiment by paragraph 395 and by the plot; the legend paragraph 38 calls it blocking). On the procedure:
(§2) Position L49 of the 19C12 variable light chain was substituted with other amino acids, such as I, T, A, M, Q, or E (see Table 6) because they may confer improved stability relative to substitution to a cysteine. The 19C12 cysteine replacement variants were tested for their ability to bind LAMA4-displaying cells (FIG. 13) and to block the binding of LAMA4 to its ligand MCAM (FIG. 14). To test LAMA4 binding capacity, serially diluted antibodies were pre-incubated with LAMA4-displaying human 293 cells, followed by anti-human-650 secondary antibody incubation. […] Fluorescent signal was assessed via flow cytometric analyses and plotted as mean fluorescence intensity (MFI). The 19C12 cysteine replacement variants retain their MCAM blocking and LAMA4 binding activity to varying degrees.

Experiment [6] deals with T4, recombinant laminin 411. Kind of experiment: flow cytometric blocking assay; antibody pre-incubated with 650-labeled laminin 411; blocked partner: human MCAM on CHO cells; MFI (blocking experiment by paragraph 395 and by the 411 / no 411 controls on the sheet; the legend paragraph 39 calls it binding). On the procedure:
as §2

T4 sequence (chain, as listed by the source limits assumed, chain 1 of 3): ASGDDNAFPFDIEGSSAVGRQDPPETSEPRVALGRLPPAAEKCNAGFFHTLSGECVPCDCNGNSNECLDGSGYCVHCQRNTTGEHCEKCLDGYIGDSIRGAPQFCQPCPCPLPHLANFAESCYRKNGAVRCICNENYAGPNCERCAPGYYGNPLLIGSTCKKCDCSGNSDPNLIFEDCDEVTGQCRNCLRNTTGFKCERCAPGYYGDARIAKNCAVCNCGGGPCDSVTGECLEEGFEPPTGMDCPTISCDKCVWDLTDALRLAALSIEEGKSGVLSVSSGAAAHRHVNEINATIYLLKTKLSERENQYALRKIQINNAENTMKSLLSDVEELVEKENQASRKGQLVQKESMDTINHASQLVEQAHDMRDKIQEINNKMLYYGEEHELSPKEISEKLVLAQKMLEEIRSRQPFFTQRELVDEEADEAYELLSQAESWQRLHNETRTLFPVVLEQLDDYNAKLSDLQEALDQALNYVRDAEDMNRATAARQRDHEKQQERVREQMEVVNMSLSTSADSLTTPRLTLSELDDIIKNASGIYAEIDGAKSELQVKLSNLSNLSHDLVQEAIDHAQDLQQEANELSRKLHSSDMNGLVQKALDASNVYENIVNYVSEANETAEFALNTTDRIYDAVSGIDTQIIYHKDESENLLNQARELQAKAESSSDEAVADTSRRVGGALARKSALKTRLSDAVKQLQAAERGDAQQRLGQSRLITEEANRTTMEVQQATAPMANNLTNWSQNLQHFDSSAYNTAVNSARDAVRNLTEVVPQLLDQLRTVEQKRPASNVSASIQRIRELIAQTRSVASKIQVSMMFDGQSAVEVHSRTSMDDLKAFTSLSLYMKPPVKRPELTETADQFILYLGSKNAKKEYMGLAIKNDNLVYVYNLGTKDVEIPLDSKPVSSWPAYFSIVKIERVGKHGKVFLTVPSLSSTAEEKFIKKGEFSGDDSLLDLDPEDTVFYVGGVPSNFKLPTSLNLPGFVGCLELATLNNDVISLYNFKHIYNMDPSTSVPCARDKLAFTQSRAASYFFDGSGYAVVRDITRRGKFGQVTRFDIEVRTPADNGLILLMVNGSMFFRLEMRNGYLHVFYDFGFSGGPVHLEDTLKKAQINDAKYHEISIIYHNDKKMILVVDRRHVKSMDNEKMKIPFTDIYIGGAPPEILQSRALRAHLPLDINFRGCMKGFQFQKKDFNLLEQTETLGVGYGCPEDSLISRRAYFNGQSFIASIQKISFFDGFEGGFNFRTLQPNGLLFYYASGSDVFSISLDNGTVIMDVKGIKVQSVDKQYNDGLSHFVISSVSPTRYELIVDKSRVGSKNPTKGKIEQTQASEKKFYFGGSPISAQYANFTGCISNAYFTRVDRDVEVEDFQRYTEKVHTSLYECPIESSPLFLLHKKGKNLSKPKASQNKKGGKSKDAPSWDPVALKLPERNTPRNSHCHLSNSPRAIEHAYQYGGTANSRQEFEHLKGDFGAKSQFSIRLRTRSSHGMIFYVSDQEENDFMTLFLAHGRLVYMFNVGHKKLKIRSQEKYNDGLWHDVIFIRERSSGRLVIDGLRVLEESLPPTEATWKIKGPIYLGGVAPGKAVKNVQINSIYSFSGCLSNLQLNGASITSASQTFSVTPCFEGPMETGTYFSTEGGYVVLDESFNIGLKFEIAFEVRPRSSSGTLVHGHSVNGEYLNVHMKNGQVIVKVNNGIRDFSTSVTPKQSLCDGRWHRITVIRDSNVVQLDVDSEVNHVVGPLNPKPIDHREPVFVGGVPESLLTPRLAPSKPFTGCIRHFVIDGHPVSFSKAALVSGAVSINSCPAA
T4 sequence (P07942 22-1786 limits assumed, chain 2 of 3): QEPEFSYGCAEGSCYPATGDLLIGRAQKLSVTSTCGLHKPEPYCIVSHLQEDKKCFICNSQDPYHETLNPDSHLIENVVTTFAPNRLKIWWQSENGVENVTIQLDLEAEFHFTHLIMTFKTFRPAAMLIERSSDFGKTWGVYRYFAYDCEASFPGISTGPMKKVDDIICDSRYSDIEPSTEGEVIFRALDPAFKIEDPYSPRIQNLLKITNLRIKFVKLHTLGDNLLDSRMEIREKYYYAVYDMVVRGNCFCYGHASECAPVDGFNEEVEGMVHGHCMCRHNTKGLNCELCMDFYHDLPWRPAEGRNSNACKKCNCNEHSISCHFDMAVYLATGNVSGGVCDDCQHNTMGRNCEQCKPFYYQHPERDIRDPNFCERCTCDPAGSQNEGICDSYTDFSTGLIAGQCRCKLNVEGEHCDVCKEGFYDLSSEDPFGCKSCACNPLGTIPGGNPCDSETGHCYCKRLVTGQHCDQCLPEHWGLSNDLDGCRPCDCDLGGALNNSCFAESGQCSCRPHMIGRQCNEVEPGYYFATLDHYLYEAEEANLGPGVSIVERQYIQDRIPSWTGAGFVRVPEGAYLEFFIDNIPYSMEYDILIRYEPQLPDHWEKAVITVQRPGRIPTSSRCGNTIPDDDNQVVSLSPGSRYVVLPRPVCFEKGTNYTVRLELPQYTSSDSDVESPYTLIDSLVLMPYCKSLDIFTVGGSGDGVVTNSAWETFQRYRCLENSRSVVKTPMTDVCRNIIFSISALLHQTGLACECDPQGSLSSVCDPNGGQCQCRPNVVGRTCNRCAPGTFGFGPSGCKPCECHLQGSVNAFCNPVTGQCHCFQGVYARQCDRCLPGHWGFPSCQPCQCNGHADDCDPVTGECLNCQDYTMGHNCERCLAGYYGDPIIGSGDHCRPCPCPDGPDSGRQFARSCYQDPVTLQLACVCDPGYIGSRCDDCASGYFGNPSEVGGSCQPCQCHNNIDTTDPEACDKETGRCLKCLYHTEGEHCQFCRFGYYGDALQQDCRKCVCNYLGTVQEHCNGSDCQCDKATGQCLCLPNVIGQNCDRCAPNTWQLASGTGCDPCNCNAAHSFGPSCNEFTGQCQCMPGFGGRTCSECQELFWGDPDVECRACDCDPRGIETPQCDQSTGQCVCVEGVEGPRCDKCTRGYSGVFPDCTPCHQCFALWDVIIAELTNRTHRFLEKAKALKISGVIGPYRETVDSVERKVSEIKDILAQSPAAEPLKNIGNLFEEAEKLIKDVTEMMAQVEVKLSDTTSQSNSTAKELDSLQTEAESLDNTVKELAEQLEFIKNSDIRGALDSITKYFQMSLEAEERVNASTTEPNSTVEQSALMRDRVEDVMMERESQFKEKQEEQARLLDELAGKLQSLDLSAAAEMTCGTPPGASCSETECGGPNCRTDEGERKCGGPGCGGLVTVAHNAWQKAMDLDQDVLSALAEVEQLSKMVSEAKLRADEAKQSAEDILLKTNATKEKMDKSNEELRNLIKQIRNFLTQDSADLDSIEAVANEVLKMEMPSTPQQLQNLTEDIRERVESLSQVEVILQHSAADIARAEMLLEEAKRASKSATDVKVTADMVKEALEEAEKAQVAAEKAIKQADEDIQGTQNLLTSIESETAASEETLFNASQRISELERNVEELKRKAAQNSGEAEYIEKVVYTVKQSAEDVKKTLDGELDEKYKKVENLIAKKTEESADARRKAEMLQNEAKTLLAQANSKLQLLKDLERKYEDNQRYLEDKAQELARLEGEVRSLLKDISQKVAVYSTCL
T4 sequence (P11047 34-1609 limits assumed, chain 3 of 3): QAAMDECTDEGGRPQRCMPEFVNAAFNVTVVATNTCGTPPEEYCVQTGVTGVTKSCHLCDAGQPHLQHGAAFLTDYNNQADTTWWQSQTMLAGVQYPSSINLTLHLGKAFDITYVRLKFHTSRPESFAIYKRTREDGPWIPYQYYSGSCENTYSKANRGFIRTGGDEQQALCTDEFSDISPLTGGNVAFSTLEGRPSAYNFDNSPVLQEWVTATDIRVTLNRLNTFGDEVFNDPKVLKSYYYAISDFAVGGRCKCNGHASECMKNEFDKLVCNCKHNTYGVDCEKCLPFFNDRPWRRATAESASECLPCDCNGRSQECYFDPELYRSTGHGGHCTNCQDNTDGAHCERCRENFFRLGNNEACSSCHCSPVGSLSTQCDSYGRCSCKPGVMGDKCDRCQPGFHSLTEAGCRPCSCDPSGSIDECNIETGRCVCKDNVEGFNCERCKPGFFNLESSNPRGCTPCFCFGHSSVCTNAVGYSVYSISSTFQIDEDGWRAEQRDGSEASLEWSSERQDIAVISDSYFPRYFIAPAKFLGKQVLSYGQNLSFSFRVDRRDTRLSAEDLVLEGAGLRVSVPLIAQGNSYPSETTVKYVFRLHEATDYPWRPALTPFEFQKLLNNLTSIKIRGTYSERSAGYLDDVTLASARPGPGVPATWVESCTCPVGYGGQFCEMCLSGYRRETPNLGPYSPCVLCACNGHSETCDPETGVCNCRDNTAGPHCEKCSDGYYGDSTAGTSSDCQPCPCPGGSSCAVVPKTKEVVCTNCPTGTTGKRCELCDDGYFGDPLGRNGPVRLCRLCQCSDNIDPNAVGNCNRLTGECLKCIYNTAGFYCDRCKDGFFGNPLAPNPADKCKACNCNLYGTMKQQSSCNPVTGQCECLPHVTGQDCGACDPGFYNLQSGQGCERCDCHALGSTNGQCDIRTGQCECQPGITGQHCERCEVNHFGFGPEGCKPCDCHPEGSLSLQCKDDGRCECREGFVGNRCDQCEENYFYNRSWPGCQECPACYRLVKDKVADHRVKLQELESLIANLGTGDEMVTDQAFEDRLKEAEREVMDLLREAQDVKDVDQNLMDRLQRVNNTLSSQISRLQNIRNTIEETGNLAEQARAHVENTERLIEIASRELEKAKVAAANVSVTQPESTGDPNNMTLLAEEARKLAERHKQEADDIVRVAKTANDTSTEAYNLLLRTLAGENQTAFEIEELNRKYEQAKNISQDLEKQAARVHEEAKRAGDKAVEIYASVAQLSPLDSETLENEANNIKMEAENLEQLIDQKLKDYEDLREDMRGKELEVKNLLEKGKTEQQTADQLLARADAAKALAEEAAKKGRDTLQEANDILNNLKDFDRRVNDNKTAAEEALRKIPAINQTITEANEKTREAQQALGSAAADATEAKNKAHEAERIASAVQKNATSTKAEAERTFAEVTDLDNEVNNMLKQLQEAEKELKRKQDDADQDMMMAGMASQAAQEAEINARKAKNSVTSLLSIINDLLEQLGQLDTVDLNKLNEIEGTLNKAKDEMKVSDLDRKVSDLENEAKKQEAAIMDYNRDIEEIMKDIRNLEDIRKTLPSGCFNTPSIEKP

B1: 19C12 variant H1+ChiL (antibody, V domains shown)
VH: QVQLQQSGAELVKPGASVKISCKASGYAFSTYWMNWVKQAPGEGLEWIGQIYPGDGDTNYNGKFKGRVTLTADKSTSTAYMELSSLRSEDTAVYFCARSDGYYDYWGQGTTVTVSS
VL: NIVLTQSPASLAVSLGQRATISCRASESVDSYGTSFMHWYQQKPGQPPKLLICLASSLESGVPARFSGSGSRTDFTLTIDPVEADDAATYYCQQNNEDPPTFGAGTKLELKR
notes: Humanized heavy chain version 1 (Hu19C12VHv1) paired with the chimeric light chain; Human constant regions not specified
In the case of B1, the binding result in experiment [1] is “binds”; in experiment [2], “binds”; in experiment [3], “no binding (tested: 5 ug/ml)”; in experiment [4] it was “binds”.

B2: 19C12 variant H2+ChiL (antibody, V domains shown)
VH: QVQLQQSGAELVKPGASVKVSCKASGYAFSTYWMNWVRQAPGQGLEWIGQIYPGDGDTNYNGKFKGRVTITADKSTSTAYMELSSLRSEDTAVYFCARSDGYYDYWGQGTTVTVSS
VL: NIVLTQSPASLAVSLGQRATISCRASESVDSYGTSFMHWYQQKPGQPPKLLICLASSLESGVPARFSGSGSRTDFTLTIDPVEADDAATYYCQQNNEDPPTFGAGTKLELKR
notes: Humanized heavy chain version 2 (Hu19C12VHv2) paired with the chimeric light chain; Human constant regions not specified
For the molecule B2, the binding result in experiment [1] is reported as “binds”; in experiment [2], “binds”; in experiment [3], “no binding (tested: 5 ug/ml)”; in experiment [4], “binds”.

B3: H2L5 (antibody, V domains shown)
VH: QVQLQQSGAELVKPGASVKVSCKASGYAFSTYWMNWVRQAPGQGLEWIGQIYPGDGDTNYNGKFKGRVTITADKSTSTAYMELSSLRSEDTAVYFCARSDGYYDYWGQGTTVTVSS
VL: DIVLTQSPASLAVSLGERATISCRASESVDSYGTSFMHWYQQKPGQPPKLLISLASSLESGVPARFSGSGSGTDFTLTISPLQAEDVATYYCQQNNEDPPTFGQGTKLEIK
notes: also called VHv2/VLv5; humanized 19C12 antibody H2L5; copies: 2 + 2
In the case of B3, in experiment [5], the binding result was “binds”.

B4: H3L3 (antibody, V domains shown)
VH: EVQLQQSGAELVKPGASVKVSCKASGYAFSTYWMNWVRQAPGQGLEWIGQIYPGDGDTNYNGKFKGRVTITADKSTSTAYMELSSLRSEDTAVYFCARSDGYYDYWGQGTTVTVSS
VL: NIVLTQSPASLAVSLGERATISCRASESVDSYGTSFMHWYQQKPGQPPKLLICLASSLESGVPARFSGSGSRTDFTLTIDPVEAEDAATYYCQQNNEDPPTFGAGTKLEIK
notes: also called VHv3/VLv3; humanized 19C12 antibody H3L3; copies: 2 + 2
Take B4: the binding result in experiment [5] and in experiment [6] was “binds” in each case.
